This is an account of results in IntAct's records for PubMed 32017888.

B1: RILP-like protein 2 (Homo sapiens), Q969X0 (parent)
chain: MEEPPVREEEEEEGEEDEERDEVGPEGALGKSPFQLTAEDVYDISYLLGRELMALGSDPRVTQLQFKVVRVLEMLEALVNEGSLALEELKMERDHLRKEVEGLRRQSPPASGEVNLGPNKMVVDLTDPNRPRFTLQELRDVLQERNKLKSQLLVVQEELQCYKSGLIPPREGPGGRREKDAVVTSAKNAGRNKEEKTIIKKLFFFRSGKQT
B2: Ras-related protein Rab-8A (Homo sapiens), P61006 (parent)
chain: MAKTYDYLFKLLLIGDSGVGKTCVLFRFSEDAFNSTFISTIGIDFKIRTIELDGKRIKLQIWDTAGQERFRTITTAYYRGAMGIMLVYDITNEKSFDNIRNWIRNIEEHASADVEKMILGNKCDVNDKRQVSKERGEKLALDYGIKFMETSAKANINVENAFFTLARDIKAKMDKKLEGNSPQGSNQGVKITPDQQKRSSFFRCVLL
partner: B1 chain

Variants of B1 are the subject of one experiment. Conditions: with rab8a_human RAB8A.
As to P131K, the “effect of a mutation on the interaction” value is reported as “decreasing interaction strength”.
Same read-out and setting: to P131C belongs “decreasing interaction strength”; to P131R, “decreasing interaction strength”; to P131A, “decreasing interaction strength”.
Same read-out and setting: in the case of L135A it was “decreasing interaction strength”.
The same measure, in the same setting: in the case of K149E it was “decreasing interaction strength”; in that of K149Q, “decreasing interaction strength”.
On to K149A, for which the “effect of a mutation on the interaction” value is given as “decreasing interaction strength”.
Still for that read-out and setting: in the case of F133A it was “disrupting interaction strength”; in that of E157Q, “decreasing interaction strength”.
The same measure, in the same setting: to E157K belongs “decreasing interaction strength”; to E157A, “decreasing interaction strength”.
On the same count and under the same terms, to R132K belongs “disrupting interaction strength”.
Take R132Q: the “effect of a mutation on the interaction” value is given as “disrupting interaction strength”.
Same read-out and setting: to R132E belongs “disrupting interaction strength”.
Same read-out and setting: in the case of R139Q it was “with no effect”; in that of R139E, “decreasing interaction strength”.
The same measure, in the same setting: to R139A belongs “with no effect”.
For the variant R130K, the “effect of a mutation on the interaction” value is reported as “decreasing interaction strength”.
Still for that read-out and setting: to R130Q belongs “decreasing interaction strength”; to R130E, “disrupting interaction strength”; to R130A, “decreasing interaction strength”.

The variants in the next experiment derive from B1. The following applies: with rab8a_human RAB8A, P61006.
Turning to R132A, the “effect of a mutation on the interaction” value is listed as “disrupting interaction strength”.

A further experiment covers variants of B2. Conditions: with ripl2_human RILPL2, Q969X0.
As to T4A, the “effect of a mutation on the interaction” value was “with no effect”.
Take K58A: the “effect of a mutation on the interaction” value is given as “with no effect”.
Take K58E: the “effect of a mutation on the interaction” value is on record as “disrupting interaction strength”.
Same read-out and setting: in the case of K58Q it was “disrupting interaction strength”; in that of D44K, “disrupting interaction strength”; in that of D44N, “disrupting interaction strength”.
Take D44A: the “effect of a mutation on the interaction” value is reported as “disrupting interaction strength”.

A further experiment covers variants of B2. Conditions: with ripl2_human RILPL2, Q969X0. This is another data set of the same source.
Take T22N: the “effect of a mutation on the interaction” value is “disrupting interaction strength”.
